Experimental data published in US20180170984.

Biological target: APOBEC3A wild-type (Homo sapiens) (UniProt P31941)
Conditions: 5-nitroindole at positions 12-14; deamination activity

APOBEC3A wild-type (Homo sapiens), sequence (P31941 whole entry): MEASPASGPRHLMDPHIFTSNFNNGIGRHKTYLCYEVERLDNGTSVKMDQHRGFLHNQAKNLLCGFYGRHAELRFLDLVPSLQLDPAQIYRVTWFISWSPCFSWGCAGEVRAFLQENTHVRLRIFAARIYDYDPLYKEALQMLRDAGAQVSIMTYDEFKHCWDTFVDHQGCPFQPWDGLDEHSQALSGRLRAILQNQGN

Sequence: AAAAAAAAATCNNNAAAAAAA [+1 to +3 5-nitroindole substrate]
- binding signal (fold lower than n3): 2
